Measurements taken from patent US12180485B2, “Repressible control of gene expression” (TRUSTEES OF BOSTON UNIVERSITY, priority 2020, dated 2024).

What follows are molecules tested on mCherry expression in HEK293 FT cells (assay: Inducible split RfxCas13d (GIB, RAP, ABA, Dano, GRZ CID domains; NES/NLS variants) mCherry knockdown, leakiness and inducibility). Conditions: inducible polypeptide systems of Tables 18-22.
Type: cell-based
Text: FIG. 6A-6C is a series of schematics and graphs showing that split RfxCas13d's reconstituted and functioned to knockdown mCherry expression in HEK293 FT cells FIG. 6A is a schematic showing split sites selected throughout RfxCas13d sequence. FIG. 6B is a bar graph showing mCherry expression under 4 conditions for gibberellin-inducible, rapalog-inducible, and abscisic acid-inducible inducible split Cas13d designs. In FIG. 6B and FIG. 6C, the left-right order of the bars for each split site is the same as the left-right order of the legend for each bar graph.
FIG. 7A-7E is a series of schematics and graphs showing a functional and inducible split Cas13d design. FIG. 7A is a bar graph showing additional split sites selected in RfxCas13d and tested with GIB CID domains. […] In FIG. 7A and FIG. 7C, the left-right order of the bars for each split site is the same as the left-right order of the legend. FIG. 7B is a schematic showing the design to compartmentalize splits. Compartmentalizing moieties facilitates the reduction of leakiness. […] FIG. 7D is a schematic showing the experiment flow for testing reversibility of the inducible split Cas13d's.
FIG. 8A-8B is a series of schematics and graphs showing that split RfxCas13d's reconstituted upon drug-induced dimerization and knocked down mCherry expression in HEK293 FT cells. FIG. 8A is a bar graph showing quantification of system performance. The left-right order of the bars for each split site is the same as the top-down order of the legend. […] System performance in leakiness score (left axis) and induced activity (right axis) by GIB, RAP, ABA, and Dano-inducible split Cas13d designs.
FIG. 10A-10B is a series of schematics and graphs showing performance optimization through separating split Cas13d moieties in different cellular compartments. […] The left-right order of the bars for each bar graph is the same as the top-down order of the legend.
FIG. 11 is a series of schematics and graphs showing the testing of reversed orientation (dark grey dots) of CID domains with respect to split Cas13d pieces against original orientations (light grey dots) designed for GIB, ABA, Dano, and GRZ inducible systems.

Row | Molecule | performance in the tested conditions
1 | SEQ ID NO: 391: PV1-ABI-L1-Cas13-508C-BGHpA (protein) MPLYGFTSICGRRPEMEDAVSTIPRFLQSSSGSMLDGRFDPQSAAHFFGVYDGHGGSQVANYCRERMHLALAEEIAKEKPMLCDGDTWLEKWKKALFNSFLRVDSEIGSVAPETVGSTSVVAVVFPSHIFVANCGDSRAVLCRGKTALPLSVDHKPDREDEAARIEAAGGKVIQWNGARVFGVLAMSRSIGDRYLKPSIIPDPEVTAVKRVKEDDCLILASDGVWDVMTDEEACEMARKRILLWHKKNAVAGDASLLADERRKEGKDPAAMSAAEYLSKLAIQRGSKDNISVVVVDLKDYKDDDDKSGGSGSGSSGGSGTAKFVEEYAFFKDSAKIADELRLIKSFARMGEPIADARRAMYIDAIRILGTNLSYDELKALADTFSLDENGNKLKKGKHGMRNFIINNVISNKRFHYLIRYGDPAHLHEIAKNEAVVKFVLGRIADIQKKQGQNGKNQIDRYYETCIGKDKGKSVSEKVDALTKIITGMNYDQFDKKRSVIEDTGRENAEREKFKKIISLYLTVIYHILKNIVNINARYVIGFHCVERDAQLYKEKGYDINLKKLEEKGFSSVTKLCAGIDETAPDKRKDVEKEMAERAKESIDSLESANPKLYANYIKYSDEKKAEEFTRQINREKAKTALNAYLRNTKWNVIIREDLLRIDNKTCTLFRNKAVHLEVARYVHAYINDIAEVNSYFQLYHYIMQRIIMNERYEKSSGKVSEYFDAVNDEKKYNDRLLKLLCVPFGYCIPRFKNLSIEALFDRNEAAKFDKEKKKVSGNSGSGPKKKRKVPKKKRKV | highest performance
2 | SEQ ID NO: 769: inducible system polypeptide, probably Table 20 (GID-GAI) (protein) MIEKKKSFAKGMGVKSTLVSGSKVYMTTFAEGSDARLEKIVEGDSIRSVNEGEAFSAEMADKNAGYKIGNAKFSHPKGYAVVANNPLYTGPVQQDMLGLKETLEKRYFGESADGNDNICIQVIHNILDIEKILAEYITNAAYAVNNISGLDKDIIGFGKFSTVYTYDEFKDPEHHRAAFNNNDKLINAIKAQYDEFDNFLDNPRLGYFGQAFFSKEGRNYIINYGNECYDILALLSGLRHWVVHNNEEESRISRTWLYNLDKNLSGGSGSGSSGGSGTMAASDEVNLIESRTVVPLNTWVLISNFKVAYNILRRPDGTFNRHLAEYLDRKVTANANPVDGVFSFDVLIDRRINLLSRVYRPAYADQEQPPSILDLEKPVDGDIVPVILFFHGGSFAHSSANSAIYDTLCRRLVGLCKCVVVSVNYRRAPENPYPCAYDDGWIALNWVNSRSWLKSKKDSKVHIFLAGDSSGGNIAHNVALRAGESGIDVLGNILLNPMFGGNERTESEKSLDGKYFVTVRDRDWYWKAFLPEGEDREHPACNPFSPRGKSLEGVSFPKSLVVVAGLDLIRDWQLAYAEGLKKAGQEVKLMHLEKATVGFYLLPNNNHFHNVMDEISAFVNAECPKKKRKV | highest performance
3 | SEQ ID NO: 392: PV1-Cas13 N507-L1-PYL-NLS-BGHpA (protein) MIEKKKSFAKGMGVKSTLVSGSKVYMTTFAEGSDARLEKIVEGDSIRSVNEGEAFSAEMADKNAGYKIGNAKFSHPKGYAVVANNPLYTGPVQQDMLGLKETLEKRYFGESADGNDNICIQVIHNILDIEKILAEYITNAAYAVNNISGLDKDIIGFGKFSTVYTYDEFKDPEHHRAAFNNNDKLINAIKAQYDEFDNFLDNPRLGYFGQAFFSKEGRNYIINYGNECYDILALLSGLRHWVVHNNEEESRISRTWLYNLDKNLDNEYISTLNYLYDRITNELTNSFSKNSAANVNYIAETLGINPAEFAEQYFRFSIMKEQKNLGFNITKLREVMLDRKDMSEIRKNHKVFDSIRTKVYTMMDFVIYRYYIEEDAKVAAANKSLPDNEKSLSEKDIFVINLRGSFNDDQKDALYYDEANRIWRKLENIMHNIKEFRGNKTREYKKKDAPRLPRILPAGRDVSAFSKLMYALTMFLDGKEINDLLTTLINKFDNIQSFLKVMPLIGVNSGGSGSGSSGGSGTAPTQDEFTQLSQSIAEFHTYQLGNGRCSSLLAQRIHAPPETVWSVVRRFDRPQIYKHFIKSCNVSEDFEMRVGCTRDVNVISGLPANTSRERLDLLDDDRRVTGFSITGGEHRLRNYKSVTTVHRFEKEEEEERIWTVVLESYVVDVPEGNSEEDTRLFADTVIRLNLQKLASITEAMNYPYDVPDYAPKKKRKV | highest performance
4 | SEQ ID NO: 1206: inducible system polypeptide, probably Table 22 (reader and repressible protease) (protein) MAPKKKRKVGIHGVPAASSDEEEARELIERAKEAAERAQEAAERTGDPRVRELARELKRLAQEAAEEVKRDPSSSDVNEALKLIVEAIEAAVDALEAAERTGDPEVRELARELVRLAVEAAEEVQRNPSSSDVNEALHSIVYAIEAAIFALEAAERTGDPEVRELARELVRLAVEAAEEVQRNPSSRNVEHALMRIVLAIYLAEENLREAEESGDPEKREKARERVREAVERAEEVQRDPSGWLNHSGGSGSGSSGGSGTAKFVEEYAFFKDSAKIADELRLIKSFARMGEPIADARRAMYIDAIRILGTNLSYDELKALADTFSLDENGNKLKKGKHGMRNFIINNVISNKRFHYLIRYGDPAHLHEIAKNEAVVKFVLGRIADIQKKQGQNGKNQIDRYYETCIGKDKGKSVSEKVDALTKIITGMNYDQFDKKRSVIEDTGRENAEREKFKKIISLYLTVIYHILKNIVNINARYVIGFHCVERDAQLYKEKGYDINLKKLEEKGFSSVTKLCAGIDETAPDKRKDVEKEMAERAKESIDSLESANPKLYANYIKYSDEKKAEEFTRQINREKAKTALNAYLRNTKWNVIIREDLLRIDNKTCTLFRNKAVHLEVARYVHAYINDIAEVNSYFQLYHYIMQRIIMNERYEKSSGKVSEYFDAVNDEKKYNDRLLKLLCVPFGYCIPRFKNLSIEALFDRNEAAKFDKEKKKVSGNSGSGPKKKRKV | highest performance
5 | SEQ ID NO: 770: inducible system polypeptide, probably Table 20 (GID-GAI) (protein) MKRDHHHHHHQDKKTMMMNEEDDGNGMDELLAVLGYKVRSSEMADVAQKLEQLEVMMSNVQEDDLSQLATETVHYNPAELYTWLDSMLTDLNSGGSGSGSSGGSGTDNEYISTLNYLYDRITNELTNSFSKNSAANVNYIAETLGINPAEFAEQYFRFSIMKEQKNLGFNITKLREVMLDRKDMSEIRKNHKVFDSIRTKVYTMMDFVIYRYYIEEDAKVAAANKSLPDNEKSLSEKDIFVINLRGSFNDDQKDALYYDEANRIWRKLENIMHNIKEFRGNKTREYKKKDAPRLPRILPAGRDVSAFSKLMYALTMFLDGKEINDLLTTLINKFDNIQSFLKVMPLIGVNAKFVEEYAFFKDSAKIADELRLIKSFARMGEPIADARRAMYIDAIRILGTNLSYDELKALADTFSLDENGNKLKKGKHGMRNFIINNVISNKRFHYLIRYGDPAHLHEIAKNEAVVKFVLGRIADIQKKQGQNGKNQIDRYYETCIGKDKGKSVSEKVDALTKIITGMNYDQFDKKRSVIEDTGRENAEREKFKKIISLYLTVIYHILKNIVNINARYVIGFHCVERDAQLYKEKGYDINLKKLEEKGFSSVTKLCAGIDETAPDKRKDVEKEMAERAKESIDSLESANPKLYANYIKYSDEKKAEEFTRQINREKAKTALNAYLRNTKWNVIIREDLLRIDNKTCTLFRNKAVHLEVARYVHAYINDIAEVNSYFQLYHYIMQRIIMNERYEKSSGKVSEYFDAVNDEKKYNDRLLKLLCVPFGYCIPRFKNLSIEALFDRNEAAKFDKEKKKVSGNSGSGPKKKRKV | highest performance
6 | SEQ ID NO: 792: inducible system polypeptide, probably Table 20 (GID-GAI) (protein) MAPKKKRKVGIHGVPAAKRDHHHHHHQDKKTMMMNEEDDGNGMDELLAVLGYKVRSSEMADVAQKLEQLEVMMSNVQEDDLSQLATETVHYNPAELYTWLDSMLTDLNSGGSGSGSSGGSGTGPVQQDMLGLKETLEKRYFGESADGNDNICIQVIHNILDIEKILAEYITNAAYAVNNISGLDKDIIGFGKFSTVYTYDEFKDPEHHRAAFNNNDKLINAIKAQYDEFDNFLDNPRLGYFGQAFFSKEGRNYIINYGNECYDILALLSGLRHWVVHNNEEESRISRTWLYNLDKNLDNEYISTLNYLYDRITNELTNSFSKNSAANVNYIAETLGINPAEFAEQYFRFSIMKEQKNLGFNITKLREVMLDRKDMSEIRKNHKVFDSIRTKVYTMMDFVIYRYYIEEDAKVAAANKSLPDNEKSLSEKDIFVINLRGSFNDDQKDALYYDEANRIWRKLENIMHNIKEFRGNKTREYKKKDAPRLPRILPAGRDVSAFSKLMYALTMFLDGKEINDLLTTLINKFDNIQSFLKVMPLIGVNAKFVEEYAFFKDSAKIADELRLIKSFARMGEPIADARRAMYIDAIRILGTNLSYDELKALADTFSLDENGNKLKKGKHGMRNFIINNVISNKRFHYLIRYGDPAHLHEIAKNEAVVKFVLGRIADIQKKQGQNGKNQIDRYYETCIGKDKGKSVSEKVDALTKIITGMNYDQFDKKRSVIEDTGRENAEREKFKKIISLYLTVIYHILKNIVNINARYVIGFHCVERDAQLYKEKGYDINLKKLEEKGFSSVTKLCAGIDETAPDKRKDVEKEMAERAKESIDSLESANPKLYANYIKYSDEKKAEEFTRQINREKAKTALNAYLRNTKWNVIIREDLLRIDNKTCTLFRNKAVHLEVARYVHAYINDIAEVNSYFQLYHYIMQRIIMNERYEKSSGKVSEYFDAVNDEKKYNDRLLKLLCVPFGYCIPRFKNLSIEALFDRNEAAKFDKEKKKVSGNSGSGPKKKRKV | highest performance
